Results on 17 sequences are retold here after a protein production outcome set (Wang et al. 2014).
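Note: failed if final PepcDB status was selected cloned or expressed and not failed if soluble or beyond.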

The nature of this data set: label from the status in PepcDB records.
In the case of “MASYAELFDIGEDFAAFVGHGLATEQGAVARFRQKLESNGLPSALTERLQRIERRYRLLVAGEMWCPDCQINLAALDFAQRLQPNIELAIISKGRAEDDLRQRLALERIAIPLVLVLDEEFNLLGRFVERPQAVLDGGPQALAAYKAGDYLEHAIGDVLAIIEGAAR”, the protein production entry is recorded as “not failed”.
Under “MATAFSSLRARLFALLLLALLLLLAPLAWLSAREAERAASEDLRRALYTRLYLLQAEGVQDEERLLLELFRLAQLFGGGVGFVLREGEARFTQLGDWPLPPGLPAALAAEGVYQGVFRGTLYVVLAQGGLAYGLAVPLEGVSGLGQRLLARYALWGGGLLLGVFLLAALALSWTLRPLRDLEKALRARAPEDLSPLPDPGLAELRPVVAALNALFARVGRLLAELAEKEEAARRFARHASHELRTPLTALKGYLEVLRRKNEPRALEGALREAGRMEALLAGLLRLSRLEALPPQRVPLDLRAFLEAQGLEVQGEGRVLADPELLALAVENVLENARRHGRLPVRAELSREGEGVWVWLVDAGPGFPEDLLPRVLEPFVHGGKGTGLGLALVAAVARAHGGRVRVENRGGAGVGLYLPLAPLKVSPGVPFGEGG” stands “not failed”; under “MATAGSSYSVSTDHQVSSPLVNLGNVAGVCIMSNAWKVEQEPSLINFISAFLSANSFRLNFVSIPPDLIFNCGGVSIAFVFVTKWDFSNVASIFSRVKRLKGQFAQLYVVATLSTKEQSDSFMRSYFQYEMEFGKPAFVQVTDAEMGFEKIVKIAHSRGVCKQQKVASKLKVERKRTVQDTNIFIRFVTSIPNINKHDANTVMFTYEQVQVLYQAIGSIEAIAKASKEDILANTDLSSKKADTLTRFFQDPEFYLSPKFN”, “failed”.
As to “MATATATSERFELAKHCSSRNWSKAIRVLDSLLAKESSILDICNRAFCYNQLELHKHVIKDCDKALLLEPFAIQAFILKGRALLALGRKQEAVLVLEQGYKSALQQTADVKQLLELEELLKDARREIDGILKSHATESPQETPAYHSEKSDEKSDKLDNHESGASSNGNSHESSSELGEQSKIVSFSKVASKASKQSDGNSDLCNGSVYKEKENGKCGSQINGYYESCKPCNGSDLHDNLAESSDRFGELSINGNKISIKSSKMSHKAEARCGISDESRKNKKYTIARISGTHSISVDFRLSRGIAQVNEGNYTKAISIFDKVLKEEPTYPEALIGRGTAYAFQRELESAIADFTKAIQSNPAASEAWKRRGQARAALGEYVEAVEDLTKALVFEPNSPDVLHERGIVNFKSKDFTAAVKDLSICLKQEKDNKSAYTYLGLAFASLGEYKKAEEAHLKSIQLDSNYLEAWLHLAQFYQELADHCKALECIEQVLQVDNRVWKAYHLRGLVFHGLGEHRKAIQELSIGLSIENTIECLYLRGSCYHAVGEYRDAVKDYDATVDVELDAVEKFVLQCLAFYQKELALYTASKVSSEFLCFDIDGDIDPMFKEYWCKRLHPKNVCEKVYRQPPLRESLKKGKLKKQDLAITKQKANILRFADLIGKRIQYDCPGFLPNKRQHRMAGLAVIEIAQKVSKAWRIEWRNSTKGTTKNGKKNRRRERTNILSQNRGGAGCSSSSFSETSTGYASLEDRSSGRSILSWQDVYSPAVRWRQISEPCDPVVWVNKLSEEFNSGFGSHTPMVLGQAKVVRYFPNYERTLTLAKSIIKDKLSVRSKKDKVIDLSKDEKIEKIMRAETCDELHNIVGEDFWVATWCDSTGSEGWVC”, the protein production result is “failed”.
Under “MATDTTVQLRAGWQGRFYEDFAVGDVYKHPYGRTVTETDNVWFTNLTMNANPMHFNAAYASGTEFDERLVNGLFVIALSVGMSVVDVSANATANLGYDDIQHHAPVFHGDTLFAESEVLSKRESESRPHVGMVTTELRTYTQDGELVLSLERTPMVRKRGAADPLEHHHHHH” stands “failed”; under “MATEATTKFPESDLRPIPQPPDFHPAIIVPAQNTTLKFWQLMVAGSIAGSVEHMAMFPVDTVKTHMQALRSCPIKPIGIRQAFRSIIKTDGPSALYRGIWAMGLGAGPAHAVYFSFYEVSKKFLSGGNPNNSAAHAISGVFATISSDAVFTPMDMVKQRLQIGNGTYKGVWDCIKRVTREEGFGAFYASYRTTVLMNAPFTAVHFTTYEAVKRGLREMLPEHAVGAEDEEGWLIYATAGAAAGGLAAAVTTPLDVVKTQLQCQGVCGCDRFKSSSISDVFRTIVKKDGYRGLARGWLPRMLFHAPAAAICWSTYETVKSFFQDLNGEANAA”, “failed”.
The value for “MATEIGSPPRFFHMPRFQHQAPRQLFYKRPDFAQQQAMQQLTFDGKRMRKAVNRKTIDYNPSVIKYLENRIWQRDQRDMRAIQPDAGYYNDLVPPIGMLNNPMNAVTTKFVRTSTNKVKCPVFVVRWTPEGRRLVTGASSGEFTLWNGLTFNFETILQAHDSPVRAMTWSHNDMWMLTADHGGYVKYWQSNMNNVKMFQAHKEAIREASFSPTDNKFATCSDDGTVRIWDFLRCHEERILRDTCFHHCRCYFLSVKR” was “failed”.
Under “MATEKLPPLERYIRMLELLTAFPDGLALSELSAMIELPKASAHRLIKTLQELELAATSSPGSATYVTGPRLRKLAFMSADAQWVVAILRPFLRELTQEMGETAFVARLEGASVRTIAFEAPETPWRGFILPGYEMHPNAAASAKAILAFQDAATLKRALREPFERLTPQTNLSKERLLEEYAAIRQSGVATCIGEIDEGLAAVAVPIEVGGAAGLYSLGLTGPMNRVMALGVERAAERMMAYAARMASGLSAGLSAESARAAGLS” stands “failed”.
Consider “MATGKISKRSIDALRPNASNQFLWDTDLKGFGAKITPAGAISYVLQFRMGGREASTRRYTIGAHGSPWTPTTARAEAERLLLLIGQGVDPVDADKQRRREAVDLAFANYAERFARSCKGDGWRRLVERAIRLYLTPVLGKKALPAINRTDVVSVFDNMPADQVANRRNVFAVLRRLFRWAVSRGDLDRSPMEGMETPPPVKARERWLSDDELRLIWNAAPECHRCFGPIVRLLIATGQRREEVSGMRWSELSRTDKLWTLPGDRTKNGEPNTIPLNDLAVAELDAAAGGDKWPRKGRVFATSTGAGFTGYAKGKDKLDRLIELAEGEPLPPWRLHDLRRTLATNFQRLGVRFEVTEAVLNHVGGSRSGVAGIYQRHDWKEEKRQALDDWNSHLEQILMRPSPGNRQAASQAAADLDK”, for which the protein production result was “failed”.
The value for “MATGNTLLAVYRSRIGEPTTDDEAYGYWLFVIGIVLGIVGLLLFYLTASRSTPRQFGYLLGAIGLISLFAGPTIRLPLTRRGLILTYLGAVVGLVAMVWFTTFYPSNWTGPEGNPAVTLYIVGLGLMAVGAVVSPLLTGRKEAYDKAVQTAEDATEVAEQATQEADRASREATQQSQTADRATRERNRLAEQLATSEAAREELATVTEASEAELAAAHATIAAAMDSKATFELYEDAGGKYRWRLRHRNANVIADSAQGYSSRQKAMQGLRSVQSNAAGGAVVFFEDATEDDTAEDVPVVPAPESDATFELFEDSAGEFRWRLRHDNGNILADSGEGYASKSNVRRALQSVRAHVPGAAYLRVDPVAYEVYADAAGEFRWRLLHRNGNILADSGEGYSSRSNARRAARRVSELAPDSAVDDRFEVYEDAAEEWRWRLRADNGELIADSGEGYANRSKAMDAVERVQSYAADADLLAIGSAAFEVYEDKGEEWRWRLRHRNGKIIADSGEGYAERNKAVAAIERIKRHAPGATQEE” was “failed”.
For “MATIDLVRHAEPDITIHDDFLRPLTSAGQRQTQQLVDSLHQYPYTAFFSSPLKRAVDTITPIADDHGLPVQKNELLVERKMPAWLPNFSDYVNQQWQDLTFFEKPGESIHQVQERYLSFLYGLPSSAFVAVGSHGTAISSLVEAAIPGIGYHFFSKLGYAAVTRIEMHAGNMVHLAVWEPKSKTFKVLK”, the protein production entry was “failed”.
Under “MATIYLVRHGQASFGKENYDQLSPRGWEQGRILGRWLAGKVEPGAVFGGNLQRHRETVEAITTGYGVSLPDMQVLEGLNEFDHLEVVERLRPEWADKQVMARDLASFPKPAKAFQQAFEKAVARWVSGDYDHEYTETWIDFRQRVGAALDELIELAGGADVIVSTSGGPIAVIAQHLLELSDRKALEMNNVIANTSVSRILYSGPRRSLAVFNNYSHLEAEDPALVTFR” stands “failed”; under “MATKAIVVEGGAMRGVFASGVLDAFLERDYKPFDFAIGVSAGASNLIGYLTDYPHRSINVITKLATSKRFFDPTRFLKGGDLIDVKWLFEESNRLYPVDEKKLFEGIPFFAATTNVDTGKADYYRVTRENFHHAIEATTALPIAYKHTPCFSGGCYTDGGVADSIPVREAYRRGARDITVVLSHPLNYSKKPVKNTWLMNKLFAEHPKMAEAMLHRSENYNESLEFIRNPPQGTRVRVIAPPDEFHVQRLSMRQSVLLEGYEMGLQEGRTHITNLSGGYGLSRENCHFCL”, “failed”; under “MATKNSAPLASFIDLLLDAVCAVDVEGRFVFVSAACERVFGYTADELIGRPMIELVHPADRERTLQAAREIMGGVPKPNFENRYVRKDGRVAHILWSARWSEVDQLRIAVARDITERKQAESRQAALYAISEAAHATEDLLVLFRHVHRIIGEWLPALNCSLALYDERSASLSFPYHVDDCEGSPELPGTLIERFCVEVLQCGQPLLLAPECPVNRVLWSEFAAIQGSRCWLGVPLNSQKGTIGVLMVKSAPGTESYSEQDQELLQYVSAQLAAAIERKQLHARLHYMAEYDQLTHLPNRELLRERLRSALARARRESGRMALLYVDLDKFKEVNDTCGHAVGDMLLQAVANRLKGCVRETDTVARIGGDEFVILLESVQHSEDAQRVAEKIRRTLGEPLRLDGHSLNILPSIGIGLYPEHGLEEKQLFKHADEAMYAVKRAQKSRSNA”, “failed”.
The value for “MATKRANGEGSIGKYKDGWRSRIMIGYNEDGKPLRKEFYGKTQKEVKDKLDAYKKQYYLSSDISDDKITLEHWFYNWLFEYRIKDLKPKSFERYESIYRNYIKDTDLGNVKLKYLRVSHIQKYYNRLLDSNKSIPTIRQINTKLKTCLSEAEKQGLIQRNYCTMVNIPVEKKENKLEILTLEQQKSFIKAIDGHKLEVLFLLALGTGLRLGELLGLKWFDIDFKKSNLTVKRTLQRTYFIDKTGNRELKVLEQGPKTSNSYRTVPIPKDVLNKLKEHKVNQNTDILKAGELYINNNYVFCNELGIPIDDKRPLRNLKSILNSLNIEPIKFHGLRKTYATRLFENDVPPKTVQVLMGHYDISITLNIYTQVMEDKKVEAVEKLDKIFSL” was “failed”; that for “MATPKLEAYRKKRDFSKTPEPVGNLTAGGNRFVVHKHHATADHYDLRLEVDGVLKSWAVPKGPSLNPADKRLAVETEDHPLDYIDFEGVIPEGEYGGGPMIVWDKGVWAPMGDVDDDLRKGAFKFRLAGEKLNGGWMLARLKRRPGEEDQRNWLLFKERDPAADTSIDILAARPESVKSGRRIEELVEKPKAPPKPVKLNPGALAGAVKAAQPERIEPQLATQTILPPEAEKDSKKPERWLHEIKFDGYRTMAHVADGKVRLVTRGGLDWTKRYGDLPEVFRRLPCRDVIIDGEIVVLDETGVSRFALLQDALSTGAGNSLVFYAFDLLHLNGWNLFDVPLEKRKALLKQLLAGQVSSRSAIQFSDHVLGEGRALYDRASEMGLEGIVSKRISAPYRSGRSKTWTKTKALKAEDFVIVGYTVSEAAEGIASLALGEWADGELEYRGKVGTGFDAQMLKELLARLEPLRAGAAKLEGAPREIIWVRPLLRAHIHYGNRTTDNVLRHAVFKGLRDVELSTPVSMSRKRLISDADLAGISITNPTRRLFGKSGPTKLDLAVYYAMIGDFMLPHILGRPVSLVRCPTGRTQDCFFQRHPFTGMPPSVATFQATNSEGEAKTYLSVEDARGYLALAQFGVVEFHNWGTTRKLLGKPDRVVFDLDPGEGIAWREVVEAAIHIKAELEALALVPFVKTSGGRGVHVVVPVVPKLDWKKFHQATSALATRLAATAPATFTTTMGKDNRIRRIFIDFHRNARSHTWAAPYSLRARTNLPASTPLSWADLETIDAPADLNYSSLPGLLATSGDPWADIDDFARDLPIL” was “failed”; that for “MATQAAGIFSPAITTTTSAVKKLHLFSSSHRPKSLSFTKTAIRAEKTESSSAAPAVKEAPVGFTPPQLDPNTPSPIFAGSTGGLLRKAQVEEFYVITWNSPKEQIFEMPTGGAAIMREGPNLLKLARKEQCLALGTRLRSKYKITYQFYRVFPNGEVQYLHPKDGVYPEKANPGREGVGLNMRSIGKNVSPIEVKFTGKQSYDL” was “failed”.
